B1: Hammerhead Ribozyme (parent)
chain: ACCGGAUGUGCUUUCCGGUCUGAUGAGUCCGUGAGGACGAAACAG

Variants of: B1
Experiment: self-cleavage, relative activity (ratio to wild type); higher = more cleavage; co-transcriptional

| Variant | self-cleavage |
| --- | --- |
| C16G A23G | 0.406 |
| G39C | 0.455 |
| G8U C43U | 0.677 |
| C29G G33U | 0.664 |
| A6U G31A | 0.748 |
| A1C C43U | 0.5 |
| U24C G25A | 0.363 |
| C2A G8C | 0.559 |
| U9C A34U | 0.65 |
| G8A C30G | 1.04 |
| C3U G18C | 0.472 |
| G22A A42U | 0.321 |
| G27A C38A | 0.871 |
| G8U U32A | 0.996 |
| A6C G17A | 0.348 |
| C3G A6U | 0.322 |
| C15A C38G | 0.515 |
| G8C C15U | 1.26 |
| A26C G45A | 0.304 |
| U13G G22U | 0.306 |
| C11G G22A | 0.304 |
| C11U A42G | 0.304 |
| G17A C29U | 0.68 |
| A34C A42C | 0.397 |

| Variant | self-cleavage |
| --- | --- |
| A26G G31A | 0.327 |
| A1U U21G | 0.303 |
| C15G U32C | 0.804 |
| U9C G31U | 0.948 |
| C30U C43U | 0.546 |
| U28C G45U | 0.727 |
| U28C G45C | 0.406 |
| U28C G45A | 0.628 |
| C20U G33C | 0.682 |
| U12C G25U | 0.277 |
| U12C U19A | 0.388 |
| U19A C43U | 0.396 |
| U19A C43G | 0.346 |
| G5A G27U | 0.538 |
| U28G G36U | 0.35 |
| U21G U24C | 0.391 |
| U13A G25C | 0.327 |
| U9G G10C | 0.987 |
| G8C C43G | 0.403 |
| G8A C20A | 0.501 |
| C11A G31C | 1.12 |
| U32C A42U | 0.366 |
| U24A U32A | 0.859 |
| A6U G10C | 0.522 |

| Variant | self-cleavage |
| --- | --- |
| C11A G17C | 0.506 |
| G4C G25U | 0.289 |
| A6U A41G | 0.289 |
| G10C C16G | 0.522 |
| C2U C15A | 0.397 |
| C2U C16A | 0.367 |
| G39U A40C | 0.295 |
| U9G U19C | 0.329 |
| U24A A41C | 0.371 |
| G17U A37G | 0.568 |
| C15G G35U | 0.455 |
| G36C G45A | 0.374 |
| G4C C16G | 1.35 |
| U9G U24C | 0.919 |
| U9G G33U | 0.788 |
| C3A C20G | 0.254 |
| U7C G17A | 0.32 |
| U7G G33C | 1.23 |
| A1C G45A | 0.578 |
| C30A A42U | 0.312 |
| G22C G27A | 0.359 |
| C16G A40G | 0.431 |
| U13A A37G | 1.15 |
| U13C C20A | 0.573 |

| Variant | self-cleavage |
| --- | --- |
| G5U C11U | 0.458 |
| G5U C11G | 0.815 |
| G10C A26G | 0.304 |
| A6C G27U | 0.38 |
| G5A A37G | 0.773 |
| C3A G18U | 0.324 |
| U28C C43G | 0.334 |
| C38G G39U | 0.402 |
| U24C A40C | 0.47 |
| A37C C43A | 0.301 |
| G10A U13C | 1.39 |
| C11A C30A | 1.1 |
| G27C A42G | 0.267 |
| U13A G18U | 1.23 |
| G25U G27C | 0.285 |
| U19A A44C | 0.368 |
| U7A A40G | 0.298 |
| C3U G39U | 0.343 |
| A40C A44C | 0.396 |
| A40C A44G | 0.69 |
| U21C A44U | 0.571 |
| U12G U19C | 0.524 |
| G17A | 0.768 |
| U12G G25C | 0.337 |

| Variant | self-cleavage |
| --- | --- |
| C2G G39U | 0.268 |
| G4C G33U | 0.837 |
| G31U C38A | 0.776 |
| U19C C30G | 0.459 |
| C43G G45C | 0.378 |
| G5A A23U | 0.304 |
| C2U G4A | 0.361 |
| A26U U32G | 0.466 |
| C3G C29A | 0.324 |
| G18U | 0.875 |
| U9C U13A | 1.18 |
| U12C G31C | 0.913 |
| G4C U28G | 0.326 |
| A6C U12G | 0.991 |
| G8C U24G | 1.05 |
| U14A G18A | 0.327 |
| C2U U19C | 0.531 |
| C15A G39C | 0.366 |
| U9A U24C | 1.38 |
| C30A U32G | 0.892 |
| G33U A40C | 0.726 |
| C29G A40G | 0.238 |
| G18C C29A | 0.374 |
| C20U U21G | 0.362 |

| Variant | self-cleavage |
| --- | --- |
| U9A G33A | 0.92 |
| C2U G31A | 1.11 |
| A37U C43U | 0.38 |
| G17U U32C | 0.633 |
| A40G A41C | 0.341 |
| G8A G18C | 0.574 |
| G18C G27C | 0.402 |
| G33U G35A | 0.774 |
| A34U A40G | 0.304 |
| G4C G31A | 0.939 |
| G8U G10U | 1.04 |
| A6C A23G | 0.306 |
| A6C A23C | 0.333 |
| U13C A26G | 0.313 |
| A37U A40G | 0.284 |
| C15G A40C | 0.326 |
| U14G C15G | 0.771 |
| U14G C15U | 0.581 |
| G18U G25C | 0.322 |
| U9A A44C | 0.523 |
| G5A G22C | 0.315 |
| A23C G31U | 0.647 |
| C2A G10U | 0.88 |
| U32A G39A | 0.367 |

| Variant | self-cleavage |
| --- | --- |
| A1G A44C | 0.858 |
| C15A G18C | 0.364 |
| G8U A41G | 0.328 |
| G4U C29G | 0.358 |
| G8C A41G | 0.298 |
| G4U G35U | 0.388 |
| C2G U13A | 0.353 |
| G33U A34U | 0.952 |
| A6U U32G | 0.559 |
| C15U G33U | 1.02 |
| C15A A23C | 0.307 |
| C15G A23C | 0.301 |
| U12C G22U | 0.36 |
| U9C U12G | 1.1 |
| C11A G27A | 0.928 |
| U28G G31U | 0.932 |
| G18A A37U | 0.55 |
| G8A G25A | 0.405 |
| G22U G39A | 0.35 |
| G39C C43G | 0.384 |
| U32C | 1 |
| G10A C43U | 0.605 |
| U21G U32G | 0.549 |

From the RNAGym collection of RNA variant scans (doi:10.7554/elife.80360)
